Assay results published in doi:10.1101/2023.08.11.553033.
Where two headings read alike, the source gives them in different places.

Legend:
[1] = target: T1, Pdr1p DBD (Saccharomyces cerevisiae, UniProt P12383 1-207); assay: fluorescence polarization
T1 sequence: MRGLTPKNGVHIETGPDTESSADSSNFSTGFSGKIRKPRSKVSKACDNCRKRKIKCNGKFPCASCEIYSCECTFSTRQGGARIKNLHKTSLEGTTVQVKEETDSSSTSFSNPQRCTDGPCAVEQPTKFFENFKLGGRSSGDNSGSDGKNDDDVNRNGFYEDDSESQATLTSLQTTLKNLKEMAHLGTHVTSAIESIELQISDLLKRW

[2] = target: T2, Pdr3p DBD (Saccharomyces cerevisiae, UniProt P33200 1-184); assay: fluorescence polarization
T2 sequence: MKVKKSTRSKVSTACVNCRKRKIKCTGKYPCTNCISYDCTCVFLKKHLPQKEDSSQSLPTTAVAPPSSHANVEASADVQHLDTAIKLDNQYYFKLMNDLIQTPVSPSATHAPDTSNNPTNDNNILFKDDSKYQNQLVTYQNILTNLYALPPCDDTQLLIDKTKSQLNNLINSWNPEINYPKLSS

[3] = target: T1, Pdr1p DBD; assay: competition fluorescence polarization
[4] = target: T1, Pdr1p DBD; assay: competition fluorescence polarization; remark: listed apart in the source
[5] = target: T2, Pdr3p DBD; assay: competition fluorescence polarization
[6] = target: T1, Pdr1p DBD; assay: competition fluorescence polarization; remark: listed apart in the source
[7] = target: T2, Pdr3p DBD; assay: competition fluorescence polarization; remark: listed apart in the source
[8] = target: T2, Pdr3p DBD; assay: competition fluorescence polarization; remark: listed apart in the source
[9] = target: T1, Pdr1p DBD; assay: competition fluorescence polarization; remark: listed apart in the source

B1: PBM half site 18mer (dsDNA)
DNA 1: AAAAGTTCCGGAACAACC
DNA 2: GGTTGTTCCGGAACTTTT
Kd [1]: 229 nM | Kd [2]: 118 nM

B2: PDR5_4 G4T G14A (paper numbering) (dsDNA)
DNA 1: AAACTTCCGTGGAAAACC
DNA 2: GGTTTTCCACGGAAGTTT
binding result [3]: binds

B3: PBM half site TTCCGAAA (dsDNA)
DNA 1: AAAAGTTCCGAAACAACC
DNA 2: GGTTGTTTCGGAACTTTT
binding result [4]: binds | binding result [5]: binds

B4: PDR5_4 C4A G4T G14A (paper numbering) (dsDNA)
DNA 1: AAAATTCCGTGGAAAACC
DNA 2: GGTTTTCCACGGAATTTT
binding result [6]: binds | binding result [7]: binds

B5: PBM half site TTCAAGAA (dsDNA)
DNA 1: AAAAGTTCAAGAACAACC
DNA 2: GGTTGTTCTTGAACTTTT
binding signal [8]: 2.5 fold lower affinity than PBM half site | binding signal [9]: 30 fold lower affinity than PBM half site
